Source: patent US20250011427A1 (CONCEPT TO MEDICINE BIOTECH, published 2025)
Numbering of substitutions follows the chain as printed.

Key:
[1] = target: T1, human CD3 on cells (human PBMC; Jurkat-CD3-NFAT and TCR/CD3 Effector reporter cells) (human, UniProt P07766 23-207; P04234 22-171; P09693 23-182); assay: FACS on human PBMC, PE goat anti-human IgG Fc secondary antibody, geometric mean fluorescence
T1 construct: whole, on cells; The CD3 complex as carried by T cells; also called huPBMC; CD3 receptor
T1 sequence (P07766 23-207, chain 1 of 3): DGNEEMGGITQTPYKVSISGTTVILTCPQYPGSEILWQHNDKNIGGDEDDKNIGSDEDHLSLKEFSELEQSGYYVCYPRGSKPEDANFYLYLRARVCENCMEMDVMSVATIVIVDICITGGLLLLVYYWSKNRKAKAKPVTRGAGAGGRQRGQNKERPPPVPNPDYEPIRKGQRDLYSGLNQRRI
T1 sequence (P04234 22-171, chain 2 of 3): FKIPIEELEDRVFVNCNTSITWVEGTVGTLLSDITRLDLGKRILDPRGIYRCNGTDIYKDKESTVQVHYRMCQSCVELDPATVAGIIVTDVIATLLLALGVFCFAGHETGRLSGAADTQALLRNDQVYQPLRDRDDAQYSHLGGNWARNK
T1 sequence (P09693 23-182, chain 3 of 3): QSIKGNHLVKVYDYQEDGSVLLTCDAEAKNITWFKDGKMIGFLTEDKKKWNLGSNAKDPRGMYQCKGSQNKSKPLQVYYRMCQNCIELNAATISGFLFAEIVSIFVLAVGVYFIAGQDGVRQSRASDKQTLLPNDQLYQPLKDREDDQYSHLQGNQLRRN
Method: FACS was used to evaluate the binding activity of 153A6B1, 155A9B1, and 192A7B9 chimeric mAbs on human or cynomolgus PBMC. SP34 (Biointron, B6762) and OKT3 (Biointron, B6928) served as the benchmark controls.
Briefly, cynoPBMCs were first incubated with 3-fold serially diluted 153A6B1, 155A9B1, and 192A7B9 chimeric mAbs starting at 10 nM at 4° C. for 30 mins. While huPBMCs were incubated with 4-fold serially diluted 153A6B1, 155A9B1, and 192A7B9 chimeric mAbs starting at 10 nM at 4° C. for 30 mins. After washing by PBS, PE Goat anti-Human IgG Fc Secondary Antibody (eBioscience™, Invitrogen) was added to each well and incubated at 4° C. for 30 mins. Samples were washed twice with FACS buffer. The mean florescence intensity (MFI) of PE was evaluated by MACSQuant Analyzer 16.

[2] = target: human CD3 on cells (human PBMC; Jurkat-CD3-NFAT and TCR/CD3 Effector reporter cells) (human) (UniProt P07766); assay: cell-based or functional assay
Sequence of human CD3 on cells (human PBMC; Jurkat-CD3-NFAT and TCR/CD3 Effector reporter cells) (human) (P07766 23-207, chain 1 of 3): as the sequence (P07766 23-207, chain 1 of 3) above
Sequence of human CD3 on cells (human PBMC; Jurkat-CD3-NFAT and TCR/CD3 Effector reporter cells) (human) (P04234 22-171, chain 2 of 3, further chain): as the sequence (P04234 22-171, chain 2 of 3) above
Sequence of human CD3 on cells (human PBMC; Jurkat-CD3-NFAT and TCR/CD3 Effector reporter cells) (human) (P09693 23-182, chain 3 of 3, further chain): as the sequence (P09693 23-182, chain 3 of 3) above

B1: SP34 monoclonal antibody (antibody, human IgG1, lambda, N297A, V domains shown)
VH: EVQLVESGGGLVQPKGSLKLSCAASGFTFNTYAMNWVRQAPGKGLEWVARIRSKYNNYATYYADSVKDRFTISRDDSQSILYLQMNNLKTEDTAMYYCVRHGNFGNSYVSWFAYWGQGTLVTVSA
VL: QAVVTQESALTTSPGETVTLTCRSSTGAVTTSNYANWVQEKPDHLFTGLIGGTNKRAPGVPARFSGSLIGDKAALTITGAQTEDEAIYFCALWYSNLWVFGGGTKLTVLG
notes: Benchmark, bought (Biointron, B6762)
EC50 (read off the curve) [1]: ~0.3 nM

B2: Hu155A9B1-1 (antibody, V domains shown)
VH: EVQLQESGPGLVKPSETLSLTCTVSGGSISSYNVHWIRQPPGKGLEWIGRVRYNGDTSYNSALKSRVTISVDTSKNQFSLKLSSVTAADTAVYYCARGPYGGSSEPLFDYWGQGTMVTVSS
VL: DIQMTQSPSSLSASVGDRVTITCKASQNINKYLNWYQQKPGKAPRLLIYTTNNLQTGVPSRFSGSGSGTDFTLTISSLQPEDFATYYCLQHNSGYTFGQGTKLEIK
% of SP34 [2]: 14.2%

B3: Hu155A9B1-13 (antibody, V domains shown)
VH: B2 VH
VL: B2 VL with Y36F, V58I, Y87F
% of SP34 [2]: 18.4%
